Test: melting temperature; melt of duplexes
Settings: sodium 0.0675 M; strand 1 µM

Row | Substance | Tm [°C]
1 | CGACGTGCATTATGTGCTG+CAGCACATAGAGCACGTCG ((((((((..(((((((((+)))))))))..)))))))) | 51.2
2 | CGACGTGCATTATGTGCTG+CAGCACATAGTGCACGTCG (((((((((.(((((((((+))))))))).))))))))) | 53.1
3 | CGACGTGCATTATGTGCTG+CAGCACATATAGCACGTCG ((((((((..(((((((((+)))))))))..)))))))) | 52.3
4 | CGACGTGCATTATGTGCTG+CAGCACATATGGCACGTCG ((((((((..(((((((((+)))))))))..)))))))) | 51.8
5 | CGACGTGCATTATGTGCTG+CAGCACATCAGGCACGTCG ((((((((.(.((((((((+)))))))).).)))))))) | 49.9
6 | CGACGTGCATTATGTGCTG+CAGCACATCATGCACGTCG ((((((((((.((((((((+)))))))).)))))))))) | 54.1
7 | CGACGTGCATTATGTGCTG+CAGCACATCCGGCACGTCG ((((((((...((((((((+))))))))...)))))))) | 47.3
8 | CGACGTGCATTATGTGCTG+CAGCACATCCTGCACGTCG (((((((((..((((((((+))))))))..))))))))) | 49.9
9 | CGACGTGCATTATGTGCTG+CAGCACATCGAGCACGTCG ((((((((...((((((((+))))))))...)))))))) | 47.4
10 | CGACGTGCATTATGTGCTG+CAGCACATCGCGCACGTCG ((((((((...((((((((+))))))))...)))))))) | 45.8
11 | CGACGTGCATTATGTGCTG+CAGCACATCGTGCACGTCG (((((((((..((((((((+))))))))..))))))))) | 47.3
12 | CGACGTGCATTATGTGCTG+CAGCACATCTGGCACGTCG ((((((((...((((((((+))))))))...)))))))) | 48.4
13 | CGACGTGCATTATGTGCTG+CAGCACATCTTGCACGTCG (((((((((..((((((((+))))))))..))))))))) | 51.1
14 | CGACGTGCATTATGTGCTG+CAGCACATGCCGCACGTCG ((((((((...((((((((+))))))))...)))))))) | 47.5
15 | CGACGTGCATTATGTGCTG+CAGCACATGCTGCACGTCG (((((((((..((((((((+))))))))..))))))))) | 49
16 | CGACGTGCATTATGTGCTG+CAGCACATGGCGCACGTCG ((((((((...((((((((+))))))))...)))))))) | 48.4
17 | CGACGTGCATTATGTGCTG+CAGCACATGTAGCACGTCG ((((((((...((((((((+))))))))...)))))))) | 49.4
18 | CGACGTGCATTATGTGCTG+CAGCACATGTGGCACGTCG ((((((((...((((((((+))))))))...)))))))) | 49.2
19 | CGACGTGCATTATGTGCTG+CAGCACATTCAGCACGTCG ((((((((...((((((((+))))))))...)))))))) | 48.7
20 | CGACGTGCATTATGTGCTG+CAGCACATTCGGCACGTCG ((((((((...((((((((+))))))))...)))))))) | 48.5
21 | CGACGTGCCAAATGTGCTG+CAGCACATAAGGCACGTCG (((((((((..((((((((+))))))))..))))))))) | 54.4
22 | CGACGTGCCAAATGTGCTG+CAGCACATACCGCACGTCG ((((((((...((((((((+))))))))...)))))))) | 47.3
23 | CGACGTGCCAAATGTGCTG+CAGCACATAGGGCACGTCG (((((((((..((((((((+))))))))..))))))))) | 54.6
24 | CGACGTGCCAAATGTGCTG+CAGCACATATCGCACGTCG ((((((((.(.((((((((+)))))))).).)))))))) | 47.2
25 | CGACGTGCCAAATGTGCTG+CAGCACATATGGCACGTCG ((((((((((.((((((((+)))))))).)))))))))) | 56.9
26 | CGACGTGCCAAATGTGCTG+CAGCACATATTGCACGTCG ((((((((.(.((((((((+)))))))).).)))))))) | 48.9

Row | Substance | Tm [°C]
27 | CGACGTGCCAAATGTGCTG+CAGCACATCAAGCACGTCG ((((((((...((((((((+))))))))...)))))))) | 49.3
28 | CGACGTGCCAAATGTGCTG+CAGCACATCACGCACGTCG ((((((((...((((((((+))))))))...)))))))) | 47.3
29 | CGACGTGCCAAATGTGCTG+CAGCACATCAGGCACGTCG (((((((((..((((((((+))))))))..))))))))) | 54.2
30 | CGACGTGCCAAATGTGCTG+CAGCACATCATGCACGTCG ((((((((...((((((((+))))))))...)))))))) | 48.3
31 | CGACGTGCCAAATGTGCTG+CAGCACATCCTGCACGTCG ((((((((...((((((((+))))))))...)))))))) | 48.5
32 | CGACGTGCCAAATGTGCTG+CAGCACATCGGGCACGTCG (((((((((..((((((((+))))))))..))))))))) | 54.3
33 | CGACGTGCCAAATGTGCTG+CAGCACATCTTGCACGTCG ((((((((.(.((((((((+)))))))).).)))))))) | 48.7
34 | CGACGTGCCAAATGTGCTG+CAGCACATGACGCACGTCG ((((((((...((((((((+))))))))...)))))))) | 47.5
35 | CGACGTGCCAAATGTGCTG+CAGCACATGCCGCACGTCG ((((((((...((((((((+))))))))...)))))))) | 50.6
36 | CGACGTGCCAAATGTGCTG+CAGCACATGCGGCACGTCG (((((((((..((((((((+))))))))..))))))))) | 57.1
37 | CGACGTGCCAAATGTGCTG+CAGCACATGTGGCACGTCG ((((((((((.((((((((+)))))))).)))))))))) | 58.5
38 | CGACGTGCCAAATGTGCTG+CAGCACATGTTGCACGTCG ((((((((.(.((((((((+)))))))).).)))))))) | 50.5
39 | CGACGTGCCAAATGTGCTG+CAGCACATTATGCACGTCG ((((((((..(((((((((+)))))))))..)))))))) | 51.2
40 | CGACGTGCCAAATGTGCTG+CAGCACATTCCGCACGTCG ((((((((..(((((((((+)))))))))..)))))))) | 50.1
41 | CGACGTGCCAAATGTGCTG+CAGCACATTCGGCACGTCG (((((((((.(((((((((+))))))))).))))))))) | 57.5
42 | CGACGTGCCAAATGTGCTG+CAGCACATTCTGCACGTCG ((((((((..(((((((((+)))))))))..)))))))) | 51.5
43 | CGACGTGCCAAATGTGCTG+CAGCACATTGGGCACGTCG (((((((((.(((((((((+))))))))).))))))))) | 59.5
44 | CGACGTGCCAAATGTGCTG+CAGCACATTTCGCACGTCG ((((((((.((((((((((+)))))))))).)))))))) | 54.1
45 | CGACGTGCCAAATGTGCTG+CAGCACATTTGGCACGTCG (((((((((((((((((((+))))))))))))))))))) | 64.5
46 | CGACGTGCCAAATGTGCTG+CAGCACATTTTGCACGTCG ((((((((.((((((((((+)))))))))).)))))))) | 55.1
47 | CGACGTGCCACATGTGCTG+CAGCACATAACGCACGTCG ((((((((...((((((((+))))))))...)))))))) | 47.1
48 | CGACGTGCCACATGTGCTG+CAGCACATAATGCACGTCG ((((((((...((((((((+))))))))...)))))))) | 47.5
49 | CGACGTGCCACATGTGCTG+CAGCACATACAGCACGTCG ((((((((...((((((((+))))))))...)))))))) | 48.6
50 | CGACGTGCCACATGTGCTG+CAGCACATAGAGCACGTCG ((((((((...((((((((+))))))))...)))))))) | 49.4
51 | CGACGTGCCACATGTGCTG+CAGCACATAGCGCACGTCG ((((((((...((((((((+))))))))...)))))))) | 48.5
52 | CGACGTGCCACATGTGCTG+CAGCACATATAGCACGTCG ((((((((.(.((((((((+)))))))).).)))))))) | 48.4
